Measurements from the supplement of paper PMC9112550, “Optimization of the antimicrobial peptide Bac7 by deep mutational scanning” (BMC Biology, 2022).

Tested on: Escherichia coli TOP10
Experiment: shrunken log2 fold change of peptide-encoding DNA abundance (4.5 h post-induction vs induction); higher = less antimicrobial activity (less host growth inhibition)
Conditions: time post-induction: 4.5 h; library: site-saturation at positions 5, 18, 19, 20
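Note: peptides expressed intracellularly from a pBAD plasmid library in pooled LB shake-flask culture, induced with 0.3% L-arabinose, DNA abundance read by NGS, three biological replicates, DESeq2 with apeglm shrinkage.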

Sequence | shrunken log2 fold change
RRIRKRPPRLPRPRPRPDLHPRP | -0.0392
RRIRKRPPRLPRPRPRPDMCPRP | 0.217
RRIRKRPPRLPRPRPRPDNIPRP | -0.0306
RRIRKRPPRLPRPRPRPDNRPRP | 0.00592
RRIRKRPPRLPRPRPRPDQCPRP | 0.0219
RRIRKRPPRLPRPRPRPDSKPRP | -0.0709
RRIRKRPPRLPRPRPRPDSTPRP | -0.0499
RRIRKRPPRLPRPRPRPDSYPRP | -0.00206
RRIRKRPPRLPRPRPRPDTAPRP | 0.154
RRIRKRPPRLPRPRPRPDTEPRP | 1.13
RRIRKRPPRLPRPRPRPDTNPRP | 0.335
RRIRKRPPRLPRPRPRPDTRPRP | 0.0202
RRIRKRPPRLPRPRPRPDVKPRP | -0.0302
RRIRKRPPRLPRPRPRPDVRPRP | 0.0826
RRIRKRPPRLPRPRPRPDVTPRP | 1.47
RRIRKRPPRLPRPRPRPDWMPRP | 0.00417
RRIRKRPPRLPRPRPRPDWPPRP | 0.168
RRIRKRPPRLPRPRPRPDYMPRP | 0.0305
RRIRKRPPRLPRPRPRPEAKPRP | 2.54
RRIRKRPPRLPRPRPRPEATPRP | 3.17
RRIRKRPPRLPRPRPRPECQPRP | 0.57
RRIRKRPPRLPRPRPRPECYPRP | -0.0555
RRIRKRPPRLPRPRPRPEDPPRP | 2.99
RRIRKRPPRLPRPRPRPEFGPRP | 0.0185
RRIRKRPPRLPRPRPRPEFQPRP | 0.0241

Sequence | shrunken log2 fold change
RRIRKRPPRLPRPRPRPEGKPRP | 0.201
RRIRKRPPRLPRPRPRPEGNPRP | 2.03
RRIRKRPPRLPRPRPRPEIFPRP | 0.368
RRIRKRPPRLPRPRPRPEIIPRP | -0.0419
RRIRKRPPRLPRPRPRPEINPRP | 0.0365
RRIRKRPPRLPRPRPRPEKWPRP | 0.422
RRIRKRPPRLPRPRPRPELMPRP | 1.24
RRIRKRPPRLPRPRPRPEMKPRP | 0.682
RRIRKRPPRLPRPRPRPENWPRP | 0.928
RRIRKRPPRLPRPRPRPEPNPRP | 0.737
RRIRKRPPRLPRPRPRPEPTPRP | 1.47
RRIRKRPPRLPRPRPRPEQAPRP | 0.776
RRIRKRPPRLPRPRPRPEQGPRP | 0.199
RRIRKRPPRLPRPRPRPERFPRP | -0.0391
RRIRKRPPRLPRPRPRPERKPRP | 0.582
RRIRKRPPRLPRPRPRPESIPRP | 0.235
RRIRKRPPRLPRPRPRPESRPRP | 0.625
RRIRKRPPRLPRPRPRPESSPRP | -0.000321
RRIRKRPPRLPRPRPRPETHPRP | 0.736
RRIRKRPPRLPRPRPRPETKPRP | 0.106
RRIRKRPPRLPRPRPRPEWRPRP | 0.295
RRIRKRPPRLPRPRPRPFARPRP | 0.187
RRIRKRPPRLPRPRPRPFCEPRP | -0.0765
RRIRKRPPRLPRPRPRPFDKPRP | 0.132
RRIRKRPPRLPRPRPRPFDRPRP | 0.375

Sequence | shrunken log2 fold change
RRIRKRPPRLPRPRPRPFECPRP | -0.0669
RRIRKRPPRLPRPRPRPFEPPRP | 0.00335
RRIRKRPPRLPRPRPRPFEVPRP | -0.0185
RRIRKRPPRLPRPRPRPFFIPRP | -0.061
RRIRKRPPRLPRPRPRPFFRPRP | 0.0596
RRIRKRPPRLPRPRPRPFHYPRP | -0.0954
RRIRKRPPRLPRPRPRPFIHPRP | -0.0282
RRIRKRPPRLPRPRPRPFIKPRP | -0.0863
RRIRKRPPRLPRPRPRPFILPRP | -0.0304
RRIRKRPPRLPRPRPRPFIRPRP | -0.21
RRIRKRPPRLPRPRPRPFIYPRP | -0.144
RRIRKRPPRLPRPRPRPFKPPRP | 0.0806
RRIRKRPPRLPRPRPRPFMLPRP | -0.0682
RRIRKRPPRLPRPRPRPFMSPRP | 0.0192
RRIRKRPPRLPRPRPRPFMWPRP | -0.078
RRIRKRPPRLPRPRPRPFNEPRP | 0.0442
RRIRKRPPRLPRPRPRPFQRPRP | -0.0265
RRIRKRPPRLPRPRPRPFQWPRP | 0.0233
RRIRKRPPRLPRPRPRPFRPPRP | -0.0332
RRIRKRPPRLPRPRPRPFSEPRP | -0.0185
RRIRKRPPRLPRPRPRPFSNPRP | -0.411
RRIRKRPPRLPRPRPRPFTAPRP | -0.291
RRIRKRPPRLPRPRPRPFTHPRP | 0.0159
RRIRKRPPRLPRPRPRPFTYPRP | -0.0389
RRIRKRPPRLPRPRPRPFVMPRP | 0.261

Sequence | shrunken log2 fold change
RRIRKRPPRLPRPRPRPFVWPRP | -0.0438
RRIRKRPPRLPRPRPRPFYEPRP | 0.0368
RRIRKRPPRLPRPRPRPFYKPRP | -0.456
RRIRKRPPRLPRPRPRPFYTPRP | -0.109
RRIRKRPPRLPRPRPRPGAHPRP | 0.663
RRIRKRPPRLPRPRPRPGEAPRP | 1.09
RRIRKRPPRLPRPRPRPGECPRP | 0.381
RRIRKRPPRLPRPRPRPGEMPRP | 1.62
RRIRKRPPRLPRPRPRPGGVPRP | 0.656
RRIRKRPPRLPRPRPRPGHLPRP | 0.0738
RRIRKRPPRLPRPRPRPGITPRP | 0.266
RRIRKRPPRLPRPRPRPGKYPRP | 0.0356
RRIRKRPPRLPRPRPRPGLMPRP | 0.343
RRIRKRPPRLPRPRPRPGNDPRP | 0.054
RRIRKRPPRLPRPRPRPGNVPRP | 0.00843
RRIRKRPPRLPRPRPRPGSCPRP | 0.346
RRIRKRPPRLPRPRPRPGTAPRP | 0.625
RRIRKRPPRLPRPRPRPGTCPRP | 0.258
RRIRKRPPRLPRPRPRPGTIPRP | -0.0588
RRIRKRPPRLPRPRPRPGTKPRP | 0.0906
RRIRKRPPRLPRPRPRPGTYPRP | -0.0508
RRIRKRPPRLPRPRPRPHDEPRP | 0.261
RRIRKRPPRLPRPRPRPHDKPRP | 0.176
RRIRKRPPRLPRPRPRPHDTPRP | -0.0804
RRIRKRPPRLPRPRPRPHFHPRP | 0.0831

Sequence | shrunken log2 fold change
RRIRKRPPRLPRPRPRPHGAPRP | 0.594
RRIRKRPPRLPRPRPRPHHCPRP | 0.0484
RRIRKRPPRLPRPRPRPHHNPRP | -0.421
RRIRKRPPRLPRPRPRPHHSPRP | -0.298
RRIRKRPPRLPRPRPRPHIDPRP | 0.0232
RRIRKRPPRLPRPRPRPHISPRP | -0.00759
RRIRKRPPRLPRPRPRPHKMPRP | 0.105
RRIRKRPPRLPRPRPRPHLDPRP | 0.00976
RRIRKRPPRLPRPRPRPHLKPRP | 0.0906
RRIRKRPPRLPRPRPRPHLLPRP | 0.00821
RRIRKRPPRLPRPRPRPHMDPRP | 0.0185
RRIRKRPPRLPRPRPRPHMTPRP | 0.0202
RRIRKRPPRLPRPRPRPHPCPRP | -0.22
RRIRKRPPRLPRPRPRPHPHPRP | 2.25
RRIRKRPPRLPRPRPRPHPMPRP | 0.224
RRIRKRPPRLPRPRPRPHQFPRP | -0.114
RRIRKRPPRLPRPRPRPHRYPRP | 0.321
RRIRKRPPRLPRPRPRPHSGPRP | 0.066
RRIRKRPPRLPRPRPRPHSLPRP | 0.0727
RRIRKRPPRLPRPRPRPHSNPRP | 0.095
RRIRKRPPRLPRPRPRPHSQPRP | -0.142
RRIRKRPPRLPRPRPRPHTSPRP | -0.469
RRIRKRPPRLPRPRPRPHVAPRP | 0.0884
RRIRKRPPRLPRPRPRPHVEPRP | -0.0479
RRIRKRPPRLPRPRPRPHWRPRP | 0.3

Sequence | shrunken log2 fold change
RRIRKRPPRLPRPRPRPIACPRP | 0.104
RRIRKRPPRLPRPRPRPIAIPRP | -0.282
RRIRKRPPRLPRPRPRPICLPRP | 0.141
RRIRKRPPRLPRPRPRPIDDPRP | 0.0889
RRIRKRPPRLPRPRPRPIDSPRP | 0.229
RRIRKRPPRLPRPRPRPIERPRP | 0.11
RRIRKRPPRLPRPRPRPIEVPRP | 0.287
RRIRKRPPRLPRPRPRPIGAPRP | 0.479
RRIRKRPPRLPRPRPRPIHEPRP | -0.0401
RRIRKRPPRLPRPRPRPIHFPRP | -0.241
RRIRKRPPRLPRPRPRPIIAPRP | -0.0395
RRIRKRPPRLPRPRPRPIIEPRP | -0.0922
RRIRKRPPRLPRPRPRPIIMPRP | -0.419
RRIRKRPPRLPRPRPRPILHPRP | -0.394
RRIRKRPPRLPRPRPRPINRPRP | -0.159
RRIRKRPPRLPRPRPRPINYPRP | -0.0959
RRIRKRPPRLPRPRPRPIPTPRP | 0.397
RRIRKRPPRLPRPRPRPIQVPRP | -0.137
RRIRKRPPRLPRPRPRPIRHPRP | 0.132
RRIRKRPPRLPRPRPRPISCPRP | 0.0993
RRIRKRPPRLPRPRPRPISSPRP | -0.0713
RRIRKRPPRLPRPRPRPITPPRP | 0.0433
RRIRKRPPRLPRPRPRPIVAPRP | 0.399
RRIRKRPPRLPRPRPRPIVFPRP | -0.0542
RRIRKRPPRLPRPRPRPIWDPRP | -0.0152
